The values below come from publication doi:10.1101/2021.02.07.430167 (bioRxiv, 2021).

This assay has as its target T1, human TRADD death domain (199-312) (human, UniProt Q15628 199-312).
T1 sequence: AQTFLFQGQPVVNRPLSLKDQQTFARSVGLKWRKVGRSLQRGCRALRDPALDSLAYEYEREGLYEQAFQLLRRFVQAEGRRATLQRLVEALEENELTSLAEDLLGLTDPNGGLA
The assay is described as follows: NMR solution structure.

B1: human p75 neurotrophin receptor death domain (330-427) (domain or fragment)
chain: KGDGGLYSSLPPAKREEVEKLLNGSAGDTWRHLAGELGYQPEHIDSFTHEACPVRALLASWATQDSATLDALLAALRRIQRADLVESLCSESTATSPV
Take B1: the binding result is on record as “binds”.
